In US20230279085A1 (ABL BIO, published 2023):

Assays:
[1] = target: alpha-synuclein monomer (Homo sapiens, UniProt P37840 1-140); assay: SPR (BIAcore), antibody captured on Protein A, sample alpha-Syn monomer, 1:1 binding fit printed under a sensorgram that shows no binding (see non_binding)
Protocol: The quantitative analysis of the binding of alpha-synuclein antibody prepared in Example 1 to monomer and aggregate antigens was performed using BIAcore analysis.
(§1) The used instrument was T200 (GE Healthcare, S/N: 1565888). Protein A is used as a chip (GE Healthcare, Cat. 29-1275-56). 10 mM Glycine-HCl pH 1.5 (GE Healthcare, Cat. BR-1003-54) was regeneration buffer. The running buffer, analyte dilution, and the sample dilution buffer were HBS-EP. The α-syn antibodies (3A9, 9B11 and 11F11) prepared in Example 1 were diluted with 1×HBS-EP (GE Healthcare, Cat. BR-1006-69), and alpha-synuclein monomer (1 mg/ml) and fibril protein (3 mg/ml) were serially diluted in duplicate and analyzed at 6 concentrations (0, 0.39, 1.56, 6.25, 25, 100 nM) including 0 nM in total. For the capture, the monomer was for RU of 800 (theoretical), and a fibril was for RU of 100 (theoretical). The capture phase was performed at contact time of 60 seconds, a flow rate of 30 μl/min, and a stabilization period of 180 seconds. The association phase was performed at the association time of 120 seconds and the flow rate was 30 μl/min. The dissociation phase was performed at the dissociation time of 360 seconds and the flow rate of 30 μl/min. The regeneration phase was performed twice time at the regeneration time of 240 seconds (primary) and 60 seconds (secondary) and a flow rate of 30 μl/min. […]

[2] = target: alpha-synuclein aggregate (fibril) (Homo sapiens, UniProt P37840 1-140); assay: SPR (BIAcore), Protein A capture, file ProteinA-Fibril-main-5th, sample aSyn180330, 1:1 binding fit, 25 °C
Protocol: as §1, with “μl/min.” for “μl/min. The regeneration phase was performed twice time at the regeneration time of 240 seconds (primary) and 60 seconds (secondary) and a flow rate of 30 μl/min.”
The BIAcore analysis was performed to quantitatively analyze the binding affinity of the chimeric antibodies (Ch11F11) obtained in Example 8, and the humanized antibodies (Hu11F11) obtained in Example 9, according to the substantially same method of Example 2-3. […]

koff [1] [s⁻¹]	kon [1] [M⁻¹ s⁻¹]	koff [2] [s⁻¹]	Binder
2.65e-06	2.07e+06		Ch11F11 chimeric antibody (antibody, human IgG1, V domains shown, Chimeric human IgG1; also called chimeric 11F11; Ch11F11(-RD)) VH: EVQLQESGGGLVQPGGSLRLSCATSGFTFSDFYMEWVRQPPGKRLEWIAASRNKANDYTTEYSASVKGRFIVSRDTSQSILYLQMNALRAEDTAIYYCARDAHGKPFAYWGQGTLVTVSA VL: not shown
		0.000266	hu11F11(ver.3) (antibody, IgG1, V domains shown, Humanized IgG1; also called Hu11F1_ver3; Hu11F11_v3) VH: EVQLVESGGGLVQPGGSLRLSCATSGFTFSDFYMEWVRQPPGKRLEWIAASRNKANDYTTEYSASVKGRFTISRDTSKSSLYLQMNSLRAEDTAIYYCARDAHGKPFAYWGQGTTVTVSS VL: not shown
